Data on 2 substances can be found in patent US11732029B2, “Methods and compositions for the treatment of wounds” (The University of Chicago, priority 2017, dated 2023).

Assay [1] has as its system human umbilical vein endothelial cells (HUVEC). As to the kind of experiment: Cell proliferation assay with vWF HBD, HUVEC. It counts as cell-based. To be noted: vWF HBD coated plates, 72 hrs. How it is done: (§1) Cell proliferation assays were performed as previously reported1. Briefly, human lung fibroblasts (Lonza) were cultured using FGM-2 medium (Lonza) (1000 cells/well) or human umbilical vein endothelial cells (HUVEC, Lonza) were cultured using EGM-2 medium (Lonza) (1000 cells/well) on 1 μg/mL vWF HBD pre-coated 96-well plates (Tissue culture treated, Falcon). Cell numbers were quantified after 72 hrs using a CyQUANT assay (Invitrogen).

Another assay relates to human lung fibroblasts. The experiment in a line: Cell proliferation assay with vWF HBD, fibroblasts. To be noted: vWF HBD coated plates, 72 hrs, in the presence of FGF-2. In kind it is cell-based. How it is done: as §1
The next assay addresses T1, FGF-1 (Homo sapiens, UniProt P05230).
T1 construct: All GFs and chemokines were purchased in their mature forms; purchased PeproTech; host or cells: Escherichia coli
As to the kind of experiment: vWF binding to recombinant GFs (ELISA). The conditions noted are these: VEGF-A121 signal as baseline. Here is the method:
(§2) ELISA tests were performed as previously reported1. In brief, ELISA plates (med-binding, Greiner Bio-One) were coated with 50 nM GFs at 37° C. for 2 hrs. After blocking with 2% BSA solution containing PBS-T, 1 μg/mL of plasma-derived vWF (EMD Millipore) was added. Bound vWF was detected with 1 μg/mL of rabbit anti-human vWF antibody (Sino Biological). Then, HRP conjugated goat anti-rabbit antibody (Jackson ImmunoResearch) was added. After 60 min of incubation, 50 μL TMB substrate (Sigma-Aldrich) was added. The reaction was stopped by adding 25 μL of 2N H2SO4. Subsequently, the absorbance at 450 nm was measured and subtracted the absorbance at 570 nm.
(In general: In an ELISA, binding on a coated surface is turned into a signal by an enzyme label.)

For a further assay, the target named is T2, VEGF-A165 (Homo sapiens, UniProt P15692).
T2 construct: All growth factors (GFs) and chemokines were purchased in their mature forms; purchased PeproTech; host or cells: Escherichia coli
T2 sequence (P15692 27-191 isoform P15692-4 limits assumed): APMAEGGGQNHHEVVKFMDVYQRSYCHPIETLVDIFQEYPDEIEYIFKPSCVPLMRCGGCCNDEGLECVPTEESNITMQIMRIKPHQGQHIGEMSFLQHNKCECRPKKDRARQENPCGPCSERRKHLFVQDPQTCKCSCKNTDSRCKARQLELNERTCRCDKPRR
The experiment in a line: vWF binding to recombinant GFs (ELISA). The conditions noted are these: VEGF-A121 signal as baseline. How it is done:
as §2

The target in a further assay is T3, EGF (Homo sapiens, UniProt P01133).
T3 construct: All GFs and chemokines were purchased in their mature forms; purchased PeproTech; host or cells: Escherichia coli
The experiment in a line: vWF binding to recombinant GFs (ELISA). To be noted: VEGF-A121 signal as baseline. How it is done:
as §2

The target in the next assay is T4, CXCL-11 (Homo sapiens, UniProt O14625).
T4 construct: All growth factors (GFs) and chemokines were purchased in their mature forms; purchased PeproTech; host or cells: Escherichia coli
T4 sequence (O14625 22-94): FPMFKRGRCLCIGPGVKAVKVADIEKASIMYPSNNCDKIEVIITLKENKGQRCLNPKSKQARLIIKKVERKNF
The experiment in a line: vWF binding to recombinant GFs (ELISA). The conditions noted are these: VEGF-A121 signal as baseline. Here is the method:
as §2

A further assay has as its target T5, PDGF-DD (Homo sapiens, UniProt Q9GZP0).
T5 construct: All GFs and chemokines were purchased in their mature forms; purchased PeproTech; host or cells: eukaryotic cells (not further specified)
The experiment in a line: vWF binding to recombinant GFs (ELISA). The conditions noted are these: VEGF-A121 signal as baseline. How it is done:
as §2

The next assay concerns the target T6, IGF-I (Homo sapiens, UniProt P05019).
T6 construct: All GFs and chemokines were purchased in their mature forms; purchased PeproTech; host or cells: Escherichia coli
The experiment in a line: vWF binding to recombinant GFs (ELISA). To be noted: VEGF-A121 signal as baseline. Here is the method:
as §2

A further assay deals with T7, NT-3 (Homo sapiens, UniProt P20783).
T7 construct: All GFs and chemokines were purchased in their mature forms; purchased PeproTech; host or cells: Escherichia coli
T7 sequence (P20783 139-257): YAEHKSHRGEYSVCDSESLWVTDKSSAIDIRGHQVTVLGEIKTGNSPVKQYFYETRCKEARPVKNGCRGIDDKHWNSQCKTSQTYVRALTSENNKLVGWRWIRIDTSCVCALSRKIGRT
As to the kind of experiment: vWF binding to recombinant GFs (ELISA). The conditions noted are these: VEGF-A121 signal as baseline. Here is the method: as §2

For a further assay, the target named is T8, β-NGF (Homo sapiens, UniProt P01138).
T8 construct: All GFs and chemokines were purchased in their mature forms; purchased PeproTech; host or cells: Escherichia coli
As to the kind of experiment: vWF binding to recombinant GFs (ELISA). To be noted: VEGF-A121 signal as baseline. How it is done:
as §2

For the next assay, the target named is T9, PDGF-BB (Homo sapiens, UniProt P01127).
T9 construct: All growth factors (GFs) and chemokines were purchased in their mature forms; purchased PeproTech; host or cells: Escherichia coli
As to the kind of experiment: vWF binding to recombinant GFs (ELISA). The conditions noted are these: VEGF-A121 signal as baseline. How it is done: as §2

The target in a further assay is T10, FGF-7 (Homo sapiens, UniProt P21781).
T10 construct: All GFs and chemokines were purchased in their mature forms; purchased PeproTech; host or cells: Escherichia coli
T10 sequence (P21781 32-194): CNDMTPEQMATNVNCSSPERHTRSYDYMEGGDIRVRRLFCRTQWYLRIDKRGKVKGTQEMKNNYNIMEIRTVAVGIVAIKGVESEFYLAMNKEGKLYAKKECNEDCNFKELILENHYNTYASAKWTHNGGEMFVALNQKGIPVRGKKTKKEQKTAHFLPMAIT
As to the kind of experiment: vWF binding to recombinant GFs (ELISA). The conditions noted are these: VEGF-A121 signal as baseline. Here is the method: as §2

For another assay, the target named is T11, CXCL-12α (Homo sapiens, UniProt P48061).
T11 construct: All GFs and chemokines were purchased in their mature forms; purchased PeproTech; host or cells: Escherichia coli
The experiment in a line: vWF binding to recombinant GFs (ELISA). To be noted: VEGF-A121 signal as baseline. How it is done: as §2

The target in another assay is T12, CXCL-12γ (Homo sapiens, UniProt P48061).
T12 construct: All GFs and chemokines were purchased in their mature forms; purchased R & D Systems; host or cells: Escherichia coli
The experiment in a line: vWF binding to recombinant GFs (ELISA). The conditions noted are these: VEGF-A121 signal as baseline. How it is done:
as §2

The target of a further assay is T13, TGF-β3 (Homo sapiens, UniProt P10600).
T13 construct: All GFs and chemokines were purchased in their mature forms; purchased PeproTech; host or cells: eukaryotic cells (not specified)
T13 sequence (P10600 301-412 limits assumed): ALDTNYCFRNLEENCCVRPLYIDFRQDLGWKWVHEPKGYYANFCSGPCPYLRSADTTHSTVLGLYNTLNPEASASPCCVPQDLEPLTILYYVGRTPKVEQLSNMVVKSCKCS
As to the kind of experiment: vWF binding to recombinant GFs (ELISA). To be noted: VEGF-A121 signal as baseline. How it is done: as §2

A further assay addresses T14, FGF-18 (Homo sapiens, UniProt O76093).
T14 construct: All GFs and chemokines were purchased in their mature forms; purchased PeproTech; host or cells: Escherichia coli
T14 sequence (O76093 28-207): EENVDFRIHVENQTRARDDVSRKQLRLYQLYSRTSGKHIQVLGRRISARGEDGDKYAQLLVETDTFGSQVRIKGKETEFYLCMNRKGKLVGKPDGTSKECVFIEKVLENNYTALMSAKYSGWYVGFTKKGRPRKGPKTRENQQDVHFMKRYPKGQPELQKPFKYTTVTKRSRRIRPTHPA
The experiment in a line: vWF binding to recombinant GFs (ELISA). The conditions noted are these: VEGF-A121 signal as baseline. Here is the method:
as §2

The target of the next assay is T15, IGF-II (Homo sapiens, UniProt P01344).
T15 construct: All GFs and chemokines were purchased in their mature forms; purchased PeproTech; host or cells: Escherichia coli
The experiment in a line: vWF binding to recombinant GFs (ELISA). To be noted: VEGF-A121 signal as baseline. How it is done:
as §2

The next assay deals with T16, PDGF-CC (Homo sapiens, UniProt Q9NRA1).
T16 construct: All GFs and chemokines were purchased in their mature forms; purchased PeproTech; host or cells: Escherichia coli
As to the kind of experiment: vWF binding to recombinant GFs (ELISA). The conditions noted are these: VEGF-A121 signal as baseline. How it is done: as §2

A further assay deals with T17, BMP-7 (Homo sapiens, UniProt P18075).
T17 construct: All GFs and chemokines were purchased in their mature forms; purchased PeproTech; host or cells: eukaryotic cells (not further specified)
T17 sequence (P18075 293-431): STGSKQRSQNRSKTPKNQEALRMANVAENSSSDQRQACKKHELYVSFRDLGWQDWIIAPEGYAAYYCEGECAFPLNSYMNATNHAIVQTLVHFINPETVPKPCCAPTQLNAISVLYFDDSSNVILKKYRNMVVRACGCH
The experiment in a line: vWF binding to recombinant GFs (ELISA). To be noted: VEGF-A121 signal as baseline. Here is the method: as §2

The next assay concerns the target T18, TGF-β1 (Homo sapiens, UniProt P01137).
T18 construct: All GFs and chemokines were purchased in their mature forms; purchased PeproTech; host or cells: eukaryotic cells (not specified)
The experiment in a line: vWF binding to recombinant GFs (ELISA). The conditions noted are these: VEGF-A121 signal as baseline. Here is the method:
as §2

In the next assay the target is T19, PDGF-AA (Homo sapiens, UniProt P04085).
T19 construct: All GFs and chemokines were purchased in their mature forms; purchased PeproTech; host or cells: Escherichia coli
As to the kind of experiment: vWF binding to recombinant GFs (ELISA). The conditions noted are these: VEGF-A121 signal as baseline. Here is the method:
as §2

T18 sequence (P01137 279-390 limits assumed, species assumed): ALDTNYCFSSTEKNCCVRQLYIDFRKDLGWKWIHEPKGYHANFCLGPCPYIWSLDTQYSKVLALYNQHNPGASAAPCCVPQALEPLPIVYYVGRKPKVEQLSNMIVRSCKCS
T16 sequence (Q9NRA1 235-345 limits assumed): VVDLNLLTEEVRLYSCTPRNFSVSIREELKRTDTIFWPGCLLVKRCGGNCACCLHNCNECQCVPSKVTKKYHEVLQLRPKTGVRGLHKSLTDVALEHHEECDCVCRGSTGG
T9 sequence (P01127 82-190 limits assumed): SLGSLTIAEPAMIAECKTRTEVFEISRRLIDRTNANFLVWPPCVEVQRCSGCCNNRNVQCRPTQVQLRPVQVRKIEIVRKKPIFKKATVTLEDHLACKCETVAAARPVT
T5 sequence (Q9GZP0 250-370 limits assumed): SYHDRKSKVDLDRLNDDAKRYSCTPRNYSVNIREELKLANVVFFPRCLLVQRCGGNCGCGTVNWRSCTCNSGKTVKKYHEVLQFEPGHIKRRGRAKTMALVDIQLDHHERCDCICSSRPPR
T11 sequence (P48061 22-89 limits assumed): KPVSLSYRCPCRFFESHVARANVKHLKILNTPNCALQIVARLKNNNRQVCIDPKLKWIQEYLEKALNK
T12 sequence (P48061 22-119 isoform P48061-3): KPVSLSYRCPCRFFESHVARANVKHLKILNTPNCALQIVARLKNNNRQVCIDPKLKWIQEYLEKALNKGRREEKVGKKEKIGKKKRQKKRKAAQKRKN
T1 sequence (P05230 16-155 limits assumed): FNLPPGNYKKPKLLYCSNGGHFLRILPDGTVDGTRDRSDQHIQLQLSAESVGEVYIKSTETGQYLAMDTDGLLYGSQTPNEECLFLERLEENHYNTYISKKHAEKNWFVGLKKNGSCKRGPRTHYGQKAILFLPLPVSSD
T3 sequence (P01133 971-1023 limits assumed): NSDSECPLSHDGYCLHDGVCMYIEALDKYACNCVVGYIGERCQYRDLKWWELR
T8 sequence (P01138 122-241, species assumed): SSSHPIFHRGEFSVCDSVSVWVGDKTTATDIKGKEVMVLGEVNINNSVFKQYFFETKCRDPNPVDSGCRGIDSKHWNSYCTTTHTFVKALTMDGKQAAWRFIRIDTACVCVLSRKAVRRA

As to YIGLKDRKRPSELRRIASQVKYAC [vWF HBD], the endothelial proliferation result in [1] is “did not affect endothelial proliferation”. Besides, the fibroblast proliferation result in the assay with human lung fibroblasts is “did not significantly affect fibroblast proliferation”.
On to “vWF: human plasma-derived von Willebrand factor (EMD Millipore)”, for which the “vWF binding to FGF-1” value with FGF-1 was “not”. Further, the “vWF binding to VEGF-A165” value in the assay with VEGF-A165 is recorded as “bound”. In addition, the “vWF binding to EGF” value with EGF is “did not show binding”. Further, in the assay with CXCL-11, the “vWF binding to CXCL-11” value is “bound”. In the assay with PDGF-DD, the “vWF binding to PDGF-DD” value is on record as “bound”. For the same substance, the “vWF binding to IGF-I” value with IGF-I is reported as “Neither insulin-like growth factor-I (IGF-I) nor IGF-II bound”. The “vWF binding to NT-3” value in the assay with NT-3 is given as “relevant binding”. The “vWF binding to β-NGF” value with β-NGF was “relevant binding”. The “vWF binding to PDGF-BB” value with PDGF-BB is on record as “bound”. In addition, the “vWF binding to FGF-7” value with FGF-7 was “bound”. Further, in the assay with CXCL-12α, the “vWF binding to CXCL-12α” value is reported as “did not”. For the same substance, in the assay with CXCL-12γ, the “vWF binding to CXCL-12γ” value is “strong binding signal”. Moreover, the “vWF binding to TGF-β3” value in the assay with TGF-β3 was “not”. Moreover, the “vWF binding to FGF-18” value with FGF-18 is reported as “bound”. The “vWF binding to IGF-II” value with IGF-II was “Neither insulin-like growth factor-I (IGF-I) nor IGF-II bound”. Further, the “vWF binding to PDGF-CC” value with PDGF-CC is given as “bound”. Further, in the assay with BMP-7, the “vWF binding to BMP-7” value is listed as “not”. Besides, the “vWF binding to TGF-β1” value with TGF-β1 is reported as “strong binding”. Moreover, the “vWF binding to PDGF-AA” value in the assay with PDGF-AA is on record as “bound”.
